Here are results for 5 molecules from US20250027068A1.

In the experiment the target is pooled human IgG (human). In words: cell-based or functional assay.

Residue numbers refer to the chain shown, from its start.

B1: VRT-33 (Fc fusion)
chain: SQTEDSESLQRLRDIEDFQAEKKKQNVVYTKWLDGVDVKDHDFRKIVDGNIAYYATPLLNGRGFYDINKDFNRDNDKCAAAVAANMFHYWLDRNRDNVDRFLRQNPEKHGIIELPDGQLKLSDFLNTYESDDGYRDKSKLFDFISNNFNGPVWTDKLLDNYINGYAYNYKYGRTIEDSTKNTSKINFFKEVFNEKILTNNHSIRNQNEFSVLLSEALYTGKAIGLSYGPAGLRHSLGHIISVWGADLDADGNVVAIYVTDSDDKKLTIGDERVGLKRYKISTDDEGRLRLTAYEETHNTGGQIRGLWTLDTGKQAWADYFDKTEQTGTDQAEQDKTHTCPPCPAPEAAGAPSVFLFPPKPKDTLMISRTPEVTCVVVDVSHEDPEVKFNWYVDGVEVHNAKTKPREEQQNSTYRVVSVLTVLHQDWLNGKEYKCKVSNKALKAPIEKTISKAKGQPREPQVYTLPPSRDELTKNQVSLTCLVKGFYPSDIAVEWESNGQPENNYKTTPPVLDSDGSFFLYSKLTVDKSRWQQGNVFSCSVMHEALHNHYTQKSLSLSPG
Turning to B1, the Enzyme Activity Endpoint Assay: Fab′2 was determined as 0 ng/µL, the Enzyme Activity Endpoint Assay: Fc was found to be 5 ng/µL, the Enzyme Activity Endpoint Assay: IgG was found to be 1040 ng/µL and the Enzyme Activity Endpoint Assay: scIgG is 21 ng/µL.

B2: VRT-34 (Fc fusion)
chain: B1 chain with R93I, D132H
The molecule B2 came in with an Enzyme Activity Endpoint Assay: Fab′2 of 0 ng/µL, an Enzyme Activity Endpoint Assay: Fc of 5 ng/µL, an Enzyme Activity Endpoint Assay: IgG of 1020 ng/µL and an Enzyme Activity Endpoint Assay: scIgG of 20 ng/µL.

B3: VRT-35 (Fc fusion)
chain: VTSVWTKGVTPPANFTQGEDVFHAPYKANQGWYDITKTFNRKDNLLCGAATAGNMLHWWFDQNKDQIEAYLKEHPEKQKINFKGEQLFDVKEAIDTKDDQTNSKLFEYFKEKAFPYLSTKHLGVFPDHVLDMFINGYRLSLTNHGPTPVKEGSKDKRGGIFDAVFTRGVQSKLLTSRHDFKEKTLKEISDLIKQELTEGKALALSHTYANVRINHVINLWGADFDSNGNLEAIYVTDSDTEASIGMKKYFVGVNKAGKVAISAKEIEDDNIGAQVLGLFTLSTGQDIWNQTNDKTHTCPPCPAPEAAGAPSVFLFPPKPKDTLMISRTPEVTCVVVDVSHEDPEVKFNWYVDGVEVHNAKTKPREEQQNSTYRVVSVLTVLHQDWLNGKEYKCKVSNKALKAPIEKTISKAKGQPREPQVYTLPPSRDELTKNQVSLTCLVKGFYPSDIAVEWESNGQPENNYKTTPPVLDSDGSFFLYSKLTVDKSRWQQGNVFSCSVMHEALHNHYTQKSLSLSPG
B3 displayed an Enzyme Activity Endpoint Assay: Fab′2 of 0 ng/µL, an Enzyme Activity Endpoint Assay: Fc of 25 ng/µL, an Enzyme Activity Endpoint Assay: IgG of 1020 ng/µL and an Enzyme Activity Endpoint Assay: scIgG of 22 ng/µL.

B4: VRT-36 (Fc fusion)
chain: B3 chain with K27V, A69R, D99S, N102D, A203G, N227E, E231K, E267K, D268E
B4: the Enzyme Activity Endpoint Assay: Fab′2 is 0 ng/µL, the Enzyme Activity Endpoint Assay: Fc turned out to be 112 ng/µL, the Enzyme Activity Endpoint Assay: IgG amounted to 1030 ng/µL and the Enzyme Activity Endpoint Assay: scIgG was 62 ng/µL.

B5: VRT-37 (Fc fusion)
chain: VTSVWTKGVTPPTNFTYGEDVLHAPYVANQGWYDITKTFNRKDNLLCGAATAGNMLHWWFDQNKEQIENYLKKHPEKQKINFKGEQLFDVKEAIDTKDSQLDSKLFEYFKEKAFPYLSTKHLGVFPDHVIDMFINGYRLSLTNHGPTPVKRGSKDKRGGIFDAVFTRGVQSKLLTNRHDFKEKTLKEISDLIKQELTEGKALGISHTYANVRINHVINLWGADFDAEGNLEAIYVTDSDTEASIGMKKYFVGVNKNGKVAISAKEIEEDNIGAQVLGLFTLSTGQDIWNQTNDKTHTCPPCPAPEAAGAPSVFLFPPKPKDTLMISRTPEVTCVVVDVSHEDPEVKFNWYVDGVEVHNAKTKPREEQQNSTYRVVSVLTVLHQDWLNGKEYKCKVSNKALKAPIEKTISKAKGQPREPQVYTLPPSRDELTKNQVSLTCLVKGFYPSDIAVEWESNGQPENNYKTTPPVLDSDGSFFLYSKLTVDKSRWQQGNVFSCSVMHEALHNHYTQKSLSLSPG
Molecule B5 gave an Enzyme Activity Endpoint Assay: Fab′2 of 0 ng/µL, an Enzyme Activity Endpoint Assay: Fc of 101 ng/µL, an Enzyme Activity Endpoint Assay: IgG of 854 ng/µL and an Enzyme Activity Endpoint Assay: scIgG of 38 ng/µL.
